Experimental data from the supplement of paper PMC7125110.
± gives the standard error. For some of these results: Fewer inactive variants are shown than the library holds.

B1: glmS ribozyme (parent)
chain: AUAAAAGCGCCAGAACUACAGAAAUGUAGUUGACGAGGAGGAGGUUUAUCGAAUUUUCGGCGGAUGCCUCCAAA

Assays:
Conditions in all cases: with glucosamine-6-phosphate
glucosamine-6-phosphate [1] = variants of: B1; assay: kcat; higher = faster cleavage; RNA array
Summary of the method: (§1)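 E. coli RNA polymerase transcribed barcoded ribozyme variants in situ on sequenced MiSeq chips, which were tracked via a hybridised Cy3 probe at 37 °C. Tiles were imaged over ~14 h after glucosamine-6-phosphate (40 μM to 10 mM) in HEPES/KCl/Mg(OAc)2 buffer was flowed in. Normalised per-tile medians were fit to one- or two-exponential decays for kobs, and kcat and KM came from weighted Michaelis–Menten fits.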

glucosamine-6-phosphate [2] = variants of: B1; assay: self-cleavage kobs at 40 uM GlcN6P; higher = faster cleavage; RNA array
Summary of the method: as §1

glucosamine-6-phosphate [3] = variants of: B1; assay: self-cleavage kobs at 640 uM GlcN6P; higher = faster cleavage; RNA array
Summary of the method: as §1

glucosamine-6-phosphate [4] = variants of: B1; assay: self-cleavage kobs at 160 uM GlcN6P; higher = faster cleavage; RNA array
Summary of the method: as §1

glucosamine-6-phosphate [5] = variants of: B1; assay: self-cleavage kobs at 2500 uM GlcN6P; higher = faster cleavage; RNA array
Summary of the method: as §1

glucosamine-6-phosphate [6] = variants of: B1; assay: self-cleavage kobs at 10000 uM GlcN6P; higher = faster cleavage; RNA array
Summary of the method: as §1

glucosamine-6-phosphate [7] = variants of: B1; assay: KM; higher = weaker cofactor use; RNA array
Summary of the method: as §1

| Variant | kcat (glucosamine-6-phosphate [1]) [s⁻¹] | self-cleavage kobs at 40 uM GlcN6P (glucosamine-6-phosphate [2]) [s⁻¹] | self-cleavage kobs at 640 uM GlcN6P (glucosamine-6-phosphate [3]) [s⁻¹] | self-cleavage kobs at 160 uM GlcN6P (glucosamine-6-phosphate [4]) [s⁻¹] | self-cleavage kobs at 2500 uM GlcN6P (glucosamine-6-phosphate [5]) [s⁻¹] | self-cleavage kobs at 10000 uM GlcN6P (glucosamine-6-phosphate [6]) [s⁻¹] | KM (glucosamine-6-phosphate [7]) [µM] |
| --- | --- | --- | --- | --- | --- | --- | --- |
| U49C C71A | < 1e-05 | < 1e-05 | < 1e-05 |  |  |  |  |
| C50G U69G | 0.000141 ± 7.4e-06 | 0.000135 ± 1.6e-05 | 0.000151 ± 2.4e-05 | 0.000165 ± 3e-05 | 0.000126 ± 2e-05 | 0.000141 ± 1.5e-05 |  |
| A48G A53C | 5.9e-05 ± 9.7e-06 |  |  |  | 7.97e-05 ± 1.7e-05 | 5.4e-05 ± 7.2e-06 |  |
| A48G A53G | 0.00014 ± 3.1e-05 |  |  |  | 8.53e-05 ± 1.3e-05 | 0.000105 ± 1.2e-05 |  |
| A52G U69G | 5.99e-05 ± 2e-05 |  | 0.000113 ± 2.5e-05 | 7.33e-05 ± 1.4e-05 | 7.25e-05 ± 1.2e-05 |  |  |
| C50U C58A | < 1e-05 |  |  |  | < 1e-05 | < 1e-05 |  |
| C50A G66C C67U | 1.02e-05 ± 2.9e-06 |  |  |  |  |  |  |
| C50G G62C | 2.62e-05 ± 7.9e-06 |  |  |  |  |  |  |
| C50A U55G | 2.27e-05 ± 2.2e-06 |  |  |  |  |  |  |
| A48G U57C C61A | < 1e-05 |  |  |  | < 1e-05 |  |  |
| A48G U54G | 0.000141 ± 9.6e-06 |  | 6.14e-05 ± 1.1e-05 |  | 0.000134 ± 2.5e-05 | 0.000127 ± 1.2e-05 | 761 ± 180 |
| C50A U54G | 2.18e-05 ± 1.9e-06 |  |  |  |  |  |  |
| A53G U57A | 0.000309 ± 2.3e-05 |  | 4.7e-05 ± 1.1e-05 |  | 0.000134 ± 2.3e-05 | 0.00023 ± 2.9e-05 | 3400 ± 490 |
| A53U C68G | 7.87e-05 ± 9.6e-06 |  | 6.63e-05 ± 1.1e-05 | 8.2e-05 ± 1.4e-05 | 7.65e-05 ± 1.4e-05 | 7.67e-05 ± 7.9e-06 |  |
| C50U G63C | < 1e-05 |  |  |  |  | < 1e-05 |  |
| C50U G63A | < 1e-05 | < 1e-05 |  | < 1e-05 |  |  |  |
| C50U G63U | 1.75e-05 ± 7.2e-06 | < 1e-05 |  |  |  |  |  |
| A53U C58G | 9.99e-05 ± 7.2e-06 |  | 2.6e-05 ± 9.5e-06 |  | 7.16e-05 ± 1e-05 | 8.57e-05 ± 8e-06 | 1390 ± 370 |
| A53C U65A C70A C71A | 1.25e-05 ± 4e-06 |  |  |  |  |  |  |
| G51A U54A | < 1e-05 |  |  |  |  |  |  |
| C50A C67A | 2.1e-05 ± 4.7e-06 |  |  |  |  |  |  |

| Variant | kcat (glucosamine-6-phosphate [1]) [s⁻¹] | self-cleavage kobs at 40 uM GlcN6P (glucosamine-6-phosphate [2]) [s⁻¹] | self-cleavage kobs at 640 uM GlcN6P (glucosamine-6-phosphate [3]) [s⁻¹] | self-cleavage kobs at 160 uM GlcN6P (glucosamine-6-phosphate [4]) [s⁻¹] | self-cleavage kobs at 2500 uM GlcN6P (glucosamine-6-phosphate [5]) [s⁻¹] | self-cleavage kobs at 10000 uM GlcN6P (glucosamine-6-phosphate [6]) [s⁻¹] | KM (glucosamine-6-phosphate [7]) [µM] |
| --- | --- | --- | --- | --- | --- | --- | --- |
| A52G U65A | 0.00041 ± 0.00018 |  | 6.01e-05 ± 1.2e-05 |  | 0.000103 ± 1.6e-05 | 0.00028 ± 4.3e-05 |  |
| A52U U69A | 5.73e-05 ± 1.5e-05 |  | 4.77e-05 ± 1.1e-05 |  | 7.38e-05 ± 1.2e-05 | 3.63e-05 ± 1.2e-05 |  |
| U47G C71G | 0.00028 ± 1.5e-05 |  | 0.000146 ± 1.7e-05 | 5.19e-05 ± 7.8e-06 | 0.000205 ± 2.8e-05 | 0.000265 ± 2.4e-05 | 685 ± 85 |
| U49G A52U | 1.85e-05 ± 1.5e-06 |  |  | < 1e-05 |  |  | 2320 ± 910 |
| C50U | 0.000131 ± 9.2e-06 |  | 2.57e-05 ± 1.5e-06 |  | 5.29e-05 ± 1.6e-06 | 9.95e-05 ± 1.6e-06 | 3300 ± 600 |
| C50G | 0.000456 ± 6.7e-05 | 0.000121 ± 1.5e-05 | 0.000443 ± 4.5e-05 | 0.000444 ± 4.8e-05 | 0.000399 ± 4e-05 | 0.000408 ± 5.8e-05 | 90.7 ± 38 |
| C50A | 2.67e-05 ± 8.3e-07 |  | 1.25e-05 ± 3.1e-06 |  | 2.31e-05 ± 2.1e-06 | 2.49e-05 ± 1.3e-06 | 579 ± 130 |
| U49G C70A | 1.52e-05 ± 2.5e-06 |  |  |  |  |  |  |
| A53C U69G | 4.01e-05 ± 8e-06 |  | 5.28e-05 ± 1.3e-05 |  | 4.25e-05 ± 8.8e-06 |  |  |
| A53C U55C | 0.0014 ± 0.00029 |  | 0.00052 ± 9.2e-05 | 0.00015 ± 4e-05 | 0.00148 ± 0.00029 | 0.00116 ± 0.00017 | 1150 ± 480 |
| C50A G59A | < 1e-05 |  | < 1e-05 |  |  |  |  |
| A48U U69G | 5.22e-05 ± 2.1e-05 |  |  |  | 7.45e-05 ± 1.7e-05 |  |  |
| C50G C71U | 0.000123 ± 2.1e-05 | 6.9e-05 ± 9.9e-06 | 0.000194 ± 2.7e-05 | 0.000107 ± 1e-05 | 0.000103 ± 1.3e-05 |  |  |
| A48U U54G | 0.000434 ± 0.00011 |  | 8.39e-05 ± 4.1e-05 | 6.29e-05 ± 1.9e-05 | 0.000261 ± 0.0001 | 0.000397 ± 9.1e-05 |  |
| A48U U54C | 0.000526 ± 0.00015 |  | 5.32e-05 ± 1.7e-05 |  | 0.000255 ± 5.1e-05 | 0.000349 ± 6.3e-05 |  |
| A48U U65G C70U | 0.00017 ± 4.1e-05 |  |  | < 1e-05 | 0.000122 ± 2.8e-05 | 0.000132 ± 3e-05 |  |
| G51A C70U | 1.48e-05 ± 3.4e-06 |  |  |  |  |  |  |
| G51A C68A | 2.97e-05 ± 4.5e-06 |  |  |  |  |  |  |
| A53C U54C | 0.00131 ± 0.00043 | 2.24e-05 ± 9.7e-06 | 0.000355 ± 6.3e-05 | 9.33e-05 ± 1.9e-05 | 0.0011 ± 0.00018 | 0.000805 ± 0.00023 | 1870 ± 890 |
| A52G C71G | 0.00014 ± 1.4e-05 |  | 7.87e-05 ± 1.1e-05 | 4.09e-05 ± 1.4e-05 | 0.000157 ± 2.2e-05 | 0.000127 ± 1.2e-05 | 431 ± 170 |
